Experiments:
GST-SGK3 (wild type) = target: T1, GST-SGK3 (wild type)
T1 chain: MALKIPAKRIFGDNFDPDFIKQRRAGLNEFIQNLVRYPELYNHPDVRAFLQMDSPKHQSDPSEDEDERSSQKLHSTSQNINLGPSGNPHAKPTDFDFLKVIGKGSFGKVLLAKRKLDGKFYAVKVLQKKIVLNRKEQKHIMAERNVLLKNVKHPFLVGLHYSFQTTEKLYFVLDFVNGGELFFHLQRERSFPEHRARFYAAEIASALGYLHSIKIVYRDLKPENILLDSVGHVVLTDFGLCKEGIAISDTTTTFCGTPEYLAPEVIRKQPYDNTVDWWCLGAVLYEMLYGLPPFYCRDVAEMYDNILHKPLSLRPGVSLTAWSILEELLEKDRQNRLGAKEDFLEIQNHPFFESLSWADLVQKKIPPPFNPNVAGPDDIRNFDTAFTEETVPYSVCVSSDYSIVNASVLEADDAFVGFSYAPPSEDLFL

[1] = target: GST-SGK[T256A/S422D], O00141
GST-SGK2α (wild type) = target: T2, GST-SGK2α (wild type)
T2 chain: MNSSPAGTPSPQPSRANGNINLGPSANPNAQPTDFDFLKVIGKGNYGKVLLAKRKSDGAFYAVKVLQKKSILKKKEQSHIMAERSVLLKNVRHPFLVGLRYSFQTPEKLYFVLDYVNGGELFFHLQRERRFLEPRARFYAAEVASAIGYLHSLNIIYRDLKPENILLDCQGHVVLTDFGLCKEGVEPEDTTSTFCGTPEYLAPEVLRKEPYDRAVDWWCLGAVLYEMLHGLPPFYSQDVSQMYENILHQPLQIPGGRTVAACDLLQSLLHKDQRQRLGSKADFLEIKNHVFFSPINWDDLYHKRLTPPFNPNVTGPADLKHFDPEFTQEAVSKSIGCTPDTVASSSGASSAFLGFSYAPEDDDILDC

[2] = target: T3, GST-SGK (full length, wild type), O00141
T3 chain: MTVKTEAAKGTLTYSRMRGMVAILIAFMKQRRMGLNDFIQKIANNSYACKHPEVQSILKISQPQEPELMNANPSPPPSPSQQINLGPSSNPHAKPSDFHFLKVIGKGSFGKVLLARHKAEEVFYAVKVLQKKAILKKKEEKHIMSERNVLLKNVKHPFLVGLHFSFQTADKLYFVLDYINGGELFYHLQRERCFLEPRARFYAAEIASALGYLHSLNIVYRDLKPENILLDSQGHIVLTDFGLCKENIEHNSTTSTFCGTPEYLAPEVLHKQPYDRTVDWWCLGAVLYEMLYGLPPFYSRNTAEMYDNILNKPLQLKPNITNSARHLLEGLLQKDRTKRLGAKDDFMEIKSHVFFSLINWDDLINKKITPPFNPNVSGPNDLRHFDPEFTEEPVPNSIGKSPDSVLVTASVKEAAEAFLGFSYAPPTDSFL

[3] = target: GST-SGK with Lys127 mutated to Ala (kinase dead), O00141
[4] = target: GST-ΔN-SGK(61-431)[S422D], O00141
[5] = target: GST-SGK with both Thr256 and Ser422 mutated to Ala, O00141

B1: GST-PDK1 (protein)
chain: MARTTSQLYDAVPIQSSVVLCSCPSPSMVRTQTESSTPPGIPGGSRQGPAMDGTAAEPRPGAGSLQHAQPPPQPRKKRPEDFKFGKILGEGSFSTVVLARELATSREYAIKILEKRHIIKENKVPYVTRERDVMSRLDHPFFVKLYFTFQDDEKLYFGLSYAKNGELLKYIRKIGSFDETCTRFYTAEIVSALEYLHGKGIIHRDLKPENILLNEDMHIQITDFGTAKVLSPESKQARANSFVGTAQYVSPELLTEKSACKSSDLWALGCIIYQLVAGLPPFRAGNEYLIFQKIIKLEYDFPEKFFPKARDLVEKLLVLDATKRLGCEEMEGYGPLKAHPFFESVTWENLHQQTPPKLTAYLPAMSEDDEDCYGNYDNLLSQFGCMQVSSSSSSHSLSASDTGLPQRSGSNIEQYIHDLDSNSFELDLQFSEDEKRLLLEKQAGGNPWHQFVENNLILKMGPVDKRKGLFARRRQLLLTEGPHLYYVDPVNKVLKGEIPWSQELRPEAKNFKTFFVHTPNRTYYLMDPSGNAHKWCRKIQEVWRQRYQSHPDAAVQ
GST-SGK3 (wild type)
  phosphate incorporated, 30 min with 1.5 µg/ml PDK1 and MgATP: incorporation of 1.2 and 1.3 mol phosphate per mol protein, respectively
  stoichiometry of phosphorylation at 1.5 µg/ml PDK1, 30 min: close to 1 mol/mol for SGK1 and SGK3
GST-SGK[S422D], O00141
  rate of phosphorylation and activation by PDK1, against wild type: stimulated the rate of phosphorylation (FIG. 5C) and activation (FIG. 5D) by PDK1 at least six-fold
[1]
  reduction of phosphorylation by PDK1: phosphorylation by PDK1 was reduced by 80-90%
GST-SGK2α (wild type)
  stoichiometry of phosphorylation at 1.5 µg/ml PDK1, 30 min: 0.2 mol/mol for SGK2
GST-SGK[S422A], O00141
  extent of phosphorylation by PDK1: The mutation of Ser422 to Ala did not affect the extent of phosphorylation of SGK by PDK1
  reduction of the extent of activation by PDK1: reduced the extent of activation by 60%
[2]
  increase of SGK activity (Crosstide assay) after phosphorylation by PDK1: phosphor-ylation was accompanied by a 10-fold increase in the basal activity
  maximal stoichiometry of phosphorylation by PDK1: the maximal stoichiometry of phosphorylation that could be attained was 0.05 mol/mol
  stoichiometry of phosphorylation at 1.5 µg/ml PDK1, 30 min: close to 1 mol/mol for SGK1 and SGK3
[3]
  phosphorylation by PDK1: This mutant was phosphorylated at the same rate, and to the same extent, as wild type SGK
GST-PKBα, P31749
Sequence of GST-PKBα, P31749 (P31749 whole entry, looked up): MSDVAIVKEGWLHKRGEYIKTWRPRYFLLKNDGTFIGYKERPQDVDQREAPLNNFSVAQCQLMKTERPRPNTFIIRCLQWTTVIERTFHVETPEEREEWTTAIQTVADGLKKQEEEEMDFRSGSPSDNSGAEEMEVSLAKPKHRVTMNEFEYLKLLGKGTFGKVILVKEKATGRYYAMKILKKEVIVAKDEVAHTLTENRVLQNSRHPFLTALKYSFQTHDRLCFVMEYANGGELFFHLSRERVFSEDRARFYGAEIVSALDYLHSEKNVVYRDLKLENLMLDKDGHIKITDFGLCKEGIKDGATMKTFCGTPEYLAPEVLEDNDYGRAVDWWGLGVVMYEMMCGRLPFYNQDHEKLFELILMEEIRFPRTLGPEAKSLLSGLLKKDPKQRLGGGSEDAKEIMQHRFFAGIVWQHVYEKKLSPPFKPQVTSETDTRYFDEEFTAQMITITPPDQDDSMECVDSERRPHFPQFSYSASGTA
  maximal stoichiometry of phosphorylation by PDK1: compared to 0.5 mol/mol for PKBα
GST-SGK[T256A], O00141
  reduction of phosphorylation by PDK1: reduced phosphorylation by 80-90%
GST-SGK2α[S356D]
  activation and phosphorylation by PDK1, against wild type SGK2α: SGK2[Ser356Asp] was activated (FIG. 17B) and phosphorylated (FIG. 17E) by PDK1 much more effectively than wild type SGK2α
  phosphate incorporated, 30 min with 1.5 µg/ml PDK1 and MgATP: incorporation of 1.2 and 1.3 mol phosphate per mol protein, respectively
[4]
  stoichiometry of phosphorylation by PDK1: phosphorylated by PDK1 to a stoichiometry of 0.6 mol/mol protein
[5]
  reduction of phosphorylation by PDK1: reduced phosphorylation by 80-90%

Reference: US7083511
